Measurements from publication PMC10980815, “Cell surface patching via CXCR4-targeted nanothreads for cancer metastasis inhibition” (Nature Communications, 2024).
Ends that are not written are not given here. HPMA copolymer = HPMA copolymer made by RAFT copolymerization of HPMA with N-(3-aminopropyl)methacrylamide (APMA), bearing maleimide groups for grafting

Assay: Pharmacokinetics at each cycle of a four-round treatment regimen
Assay type: in vivo, female mice
Parameters: PK curves: unit not given here

## P-CM2-Cy3: Cy3-labeled P-CM2 (C(HPMA copolymer)YGGEVSALEKEVSALEKKNSALEKEVSALEKEVSALEK; also: Cy3 label on conjugate, position not given here)
Round 1, Time 0.041667 Day, replicate 1
  PK curves: 163.747
Round 1, Time 0.041667 Day, replicate 2
  PK curves: 180.755
Round 1, Time 0.041667 Day, replicate 3
  PK curves: 215.82
Round 1, Time 0.041667 Day, replicate 4
  PK curves: 227.965
Round 1, Time 0.041667 Day, replicate 5
  PK curves: 272.14
Round 1, Time 0.083333 Day, replicate 1
  PK curves: 152.881
Round 1, Time 0.083333 Day, replicate 2
  PK curves: 155.096
Round 1, Time 0.083333 Day, replicate 3
  PK curves: 158.378
Round 1, Time 0.083333 Day, replicate 4
  PK curves: 173.813
Round 1, Time 0.083333 Day, replicate 5
  PK curves: 181.609
Round 1, Time 0.166667 Day, replicate 1
  PK curves: 117.124
Round 1, Time 0.166667 Day, replicate 2
  PK curves: 133.5
Round 1, Time 0.166667 Day, replicate 3
  PK curves: 138.292
Round 1, Time 0.166667 Day, replicate 4
  PK curves: 141.138
Round 1, Time 0.166667 Day, replicate 5
  PK curves: 149.467
Round 1, Time 0.25 Day, replicate 1
  PK curves: 99.512
Round 1, Time 0.25 Day, replicate 2
  PK curves: 115.311
Round 1, Time 0.25 Day, replicate 3
  PK curves: 115.69
Round 1, Time 0.25 Day, replicate 4
  PK curves: 124.268
Round 1, Time 0.25 Day, replicate 5
  PK curves: 126.538
Round 1, Time 0.333333 Day, replicate 1
  PK curves: 72.638
Round 1, Time 0.333333 Day, replicate 2
  PK curves: 80.332
Round 1, Time 0.333333 Day, replicate 3
  PK curves: 81.864
Round 1, Time 0.333333 Day, replicate 4
  PK curves: 87.045
Round 1, Time 0.333333 Day, replicate 5
  PK curves: 96.736
Round 1, Time 0.5 Day, replicate 1
  PK curves: 53.965
Round 1, Time 0.5 Day, replicate 2
  PK curves: 58.639
Round 1, Time 0.5 Day, replicate 3
  PK curves: 59.336
Round 1, Time 0.5 Day, replicate 4
  PK curves: 66.884
Round 1, Time 0.5 Day, replicate 5
  PK curves: 78.186
Round 1, Time 1 Day, replicate 1
  PK curves: 21.997
Round 1, Time 1 Day, replicate 2
  PK curves: 25.01
Round 1, Time 1 Day, replicate 3
  PK curves: 29.67
Round 1, Time 1 Day, replicate 4
  PK curves: 31.811
Round 1, Time 1 Day, replicate 5
  PK curves: 36.626
Round 1, Time 2 Day, replicate 1
  PK curves: 11.902
Round 1, Time 2 Day, replicate 2
  PK curves: 17.163
Round 1, Time 2 Day, replicate 3
  PK curves: 19.932
Round 1, Time 2 Day, replicate 4
  PK curves: 21.481
Round 1, Time 2 Day, replicate 5
  PK curves: 24.221
Round 1, Time 3 Day, replicate 1
  PK curves: 3.355
Round 1, Time 3 Day, replicate 2
  PK curves: 5.764
Round 1, Time 3 Day, replicate 3
  PK curves: 7.718
Round 1, Time 3 Day, replicate 4
  PK curves: 11.103
Round 1, Time 3 Day, replicate 5
  PK curves: 11.877
Round 1, same
  AUC0-t: 2.910449 ± 0.479173 µg·h/mL
  AUC0-∞: 3.143497 ± 0.607036 µg·h/mL
  MRT0-t: 17.874 ± 1.409 h
  MRT0-∞: 23.669 ± 4.167 h
Round 1 of four-round Nanothread-1→Nanothread-2 regimen, blood fluorescence, DAS 2.0, mean ± SD, n = 5
  T1/2z: 19.104 ± 3.483 h
Round 2, Time 0.041667 Day, replicate 1
  PK curves: 166.289
Round 2, Time 0.041667 Day, replicate 2
  PK curves: 169.535
Round 2, Time 0.041667 Day, replicate 3
  PK curves: 192.765
Round 2, Time 0.041667 Day, replicate 4
  PK curves: 283.095
Round 2, Time 0.041667 Day, replicate 5
  PK curves: 308.888
Round 2, Time 0.083333 Day, replicate 1
  PK curves: 129.263
Round 2, Time 0.083333 Day, replicate 2
  PK curves: 143.311
Round 2, Time 0.083333 Day, replicate 3
  PK curves: 159.105
Round 2, Time 0.083333 Day, replicate 4
  PK curves: 167.258
Round 2, Time 0.083333 Day, replicate 5
  PK curves: 213.448
Round 2, Time 0.166667 Day, replicate 1
  PK curves: 118.029
Round 2, Time 0.166667 Day, replicate 2
  PK curves: 120.594
Round 2, Time 0.166667 Day, replicate 3
  PK curves: 139.935
Round 2, Time 0.166667 Day, replicate 4
  PK curves: 140.364
Round 2, Time 0.166667 Day, replicate 5
  PK curves: 140.694
Round 2, Time 0.25 Day, replicate 1
  PK curves: 88.6458
Round 2, Time 0.25 Day, replicate 2
  PK curves: 101.112
Round 2, Time 0.25 Day, replicate 3
  PK curves: 104.483
Round 2, Time 0.25 Day, replicate 4
  PK curves: 106.877
Round 2, Time 0.25 Day, replicate 5
  PK curves: 110.672
Round 2, Time 0.333333 Day, replicate 1
  PK curves: 69.5736
Round 2, Time 0.333333 Day, replicate 2
  PK curves: 78.4476
Round 2, Time 0.333333 Day, replicate 3
  PK curves: 88.3019
Round 2, Time 0.333333 Day, replicate 4
  PK curves: 89.2405
Round 2, Time 0.333333 Day, replicate 5
  PK curves: 90.1636
Round 2, Time 0.5 Day, replicate 1
  PK curves: 43.1833
Round 2, Time 0.5 Day, replicate 2
  PK curves: 45.6973
Round 2, Time 0.5 Day, replicate 3
  PK curves: 51.9942
Round 2, Time 0.5 Day, replicate 4
  PK curves: 68.9589
Round 2, Time 0.5 Day, replicate 5
  PK curves: 80.0862
Round 2, Time 1 Day, replicate 1
  PK curves: 16.0352
Round 2, Time 1 Day, replicate 2
  PK curves: 27.0822
Round 2, Time 1 Day, replicate 3
  PK curves: 31.0181
Round 2, Time 1 Day, replicate 4
  PK curves: 36.116
Round 2, Time 1 Day, replicate 5
  PK curves: 40.972
Round 2, Time 2 Day, replicate 1
  PK curves: 12.4543
Round 2, Time 2 Day, replicate 2
  PK curves: 13.9537
Round 2, Time 2 Day, replicate 3
  PK curves: 16.9804
Round 2, Time 2 Day, replicate 4
  PK curves: 22.3399
Round 2, Time 2 Day, replicate 5
  PK curves: 24.6061
Round 2, Time 3 Day, replicate 1
  PK curves: 4.968
Round 2, Time 3 Day, replicate 2
  PK curves: 5.058
Round 2, Time 3 Day, replicate 3
  PK curves: 5.667
Round 2, Time 3 Day, replicate 4
  PK curves: 9.298
Round 2, Time 3 Day, replicate 5
  PK curves: 13.6533
Round 2, same
  AUC0-t: 2.845842 ± 0.670957 µg·h/mL
  AUC0-∞: 3.070777 ± 0.804281 µg·h/mL
  MRT0-t: 17.76 ± 1.068 h
  MRT0-∞: 23.374 ± 3.332 h
  T1/2z: 18.965 ± 3.022 h
